The record followed here is paper PMC6572788 (Nature Communications, 2019).

The target in data set [1] is T1, 2PT-NBD1 (human CFTR NBD1, residues 387–646, S492P/A534P/I539T) (Homo sapiens (human), CFTR M470 allele …, S492P | A534P | I539T, biotin (in the ELISA; site not stated)). Put plainly: cell-based or functional assay.
Data set [2] addresses T2, human wt-CFTR stably overexpressed in BHK-21 cells (human, UniProt P13569).
T2 construct: human CFTR, wild type, full length, in BHK-21 cells; also called cellular CFTR; FL-CFTR; source: BHK-21 cells, stably overexpressing; in permeabilised cells (flow cytometry) and solubilised with 1% DMNG (pull-down)
Kind of data set: flow cytometry on cells; BHK-21 cells stably overexpressing human wt-CFTR or 2PT-F508del-CFTR, permeabilised with 0.01% β-DDM on ice; 50 µg ml^−1 nanobody; detection by anti-His6 or anti-cMyc antibody and anti-mouse-Alexa Fluor 488. Particulars: one partner purified. (Flow cytometry measures light scatter and fluorescence of single cells or particles in a stream.)

The target in data set [3] is T1, 2PT-NBD1 (human CFTR NBD1, residues …). Kind of data set: ITC; nanobody titrated into 2PT-NBD1; NanoITC, 20 °C; 20 mM Hepes pH 7.5, 150 mM NaCl, 10% glycerol, 10% ethylene glycol, 2 mM ATP, 3 mM MgCl2; one-site binding model. Particulars: both partners purified. In general terms: ITC needs no label: the signal is the heat of the interaction.

T2 sequence (P13569 whole entry): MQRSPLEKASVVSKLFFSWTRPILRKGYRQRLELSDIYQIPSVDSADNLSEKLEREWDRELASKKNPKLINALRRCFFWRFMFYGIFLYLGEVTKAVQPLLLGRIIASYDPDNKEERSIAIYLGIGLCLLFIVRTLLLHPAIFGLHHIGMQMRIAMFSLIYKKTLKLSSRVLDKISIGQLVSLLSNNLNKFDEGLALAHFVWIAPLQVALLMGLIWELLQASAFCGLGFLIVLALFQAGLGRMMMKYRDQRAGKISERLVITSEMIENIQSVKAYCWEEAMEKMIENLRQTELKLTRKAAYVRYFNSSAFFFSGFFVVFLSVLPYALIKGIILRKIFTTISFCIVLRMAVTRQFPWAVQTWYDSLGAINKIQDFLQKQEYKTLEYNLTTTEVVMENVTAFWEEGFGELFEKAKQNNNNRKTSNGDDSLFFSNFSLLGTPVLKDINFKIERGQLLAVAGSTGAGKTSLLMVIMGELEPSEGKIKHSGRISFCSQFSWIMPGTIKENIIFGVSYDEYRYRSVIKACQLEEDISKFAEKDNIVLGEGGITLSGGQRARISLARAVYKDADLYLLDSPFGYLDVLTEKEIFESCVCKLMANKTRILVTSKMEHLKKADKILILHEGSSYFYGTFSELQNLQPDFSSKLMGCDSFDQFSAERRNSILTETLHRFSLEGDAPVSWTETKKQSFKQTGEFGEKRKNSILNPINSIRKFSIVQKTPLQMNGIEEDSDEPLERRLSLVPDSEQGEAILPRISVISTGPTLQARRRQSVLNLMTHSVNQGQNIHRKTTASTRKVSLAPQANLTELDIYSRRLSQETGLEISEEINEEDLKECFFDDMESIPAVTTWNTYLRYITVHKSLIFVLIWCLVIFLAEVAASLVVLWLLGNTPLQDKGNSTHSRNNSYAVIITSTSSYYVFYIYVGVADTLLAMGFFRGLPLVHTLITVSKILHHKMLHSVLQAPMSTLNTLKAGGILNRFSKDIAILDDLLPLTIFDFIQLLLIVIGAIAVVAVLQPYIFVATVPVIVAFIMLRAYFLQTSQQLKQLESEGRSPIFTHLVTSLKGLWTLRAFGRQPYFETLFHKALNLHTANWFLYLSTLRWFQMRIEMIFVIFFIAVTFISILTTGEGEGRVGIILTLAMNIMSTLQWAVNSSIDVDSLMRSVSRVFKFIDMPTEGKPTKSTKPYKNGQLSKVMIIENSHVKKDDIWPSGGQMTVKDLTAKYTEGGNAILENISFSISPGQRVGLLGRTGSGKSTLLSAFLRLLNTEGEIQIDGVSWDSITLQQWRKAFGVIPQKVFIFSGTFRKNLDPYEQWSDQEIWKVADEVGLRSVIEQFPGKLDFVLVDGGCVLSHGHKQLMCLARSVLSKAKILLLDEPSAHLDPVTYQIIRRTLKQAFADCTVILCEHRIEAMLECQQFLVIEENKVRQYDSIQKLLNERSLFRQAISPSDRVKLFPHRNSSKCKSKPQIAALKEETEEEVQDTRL
T1 sequence (P13569 387-646 V470M/S492P/A534P/I539T): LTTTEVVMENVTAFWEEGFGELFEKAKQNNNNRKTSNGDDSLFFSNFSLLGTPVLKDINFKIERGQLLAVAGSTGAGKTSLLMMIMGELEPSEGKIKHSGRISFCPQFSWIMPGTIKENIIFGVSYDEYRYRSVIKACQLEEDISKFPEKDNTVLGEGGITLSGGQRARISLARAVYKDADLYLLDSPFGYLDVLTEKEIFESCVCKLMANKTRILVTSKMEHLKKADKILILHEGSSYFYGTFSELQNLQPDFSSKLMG

B1: nanobody T27 (VHH)
VHH: QVQLQESGGGLEQPGGSLRLSCATSGVIFGINAMGWYRQAPGKQRELVATFTSGGSTNYADFVEGRFTISRDNAKNTVYLQMNGLRPEDTAVYYCHATVVVSRYGLTYDYWGQGTQVTVSS
notes: pXAP100 vector, C-terminal His6-cMyc tag; source: E. coli BL21(DE3) pLysS, periplasmic extract, purified (Ni-NTA, SEC); not shown: His6, C-terminal, kept; cMyc, C-terminal, kept
B1: the “increase of the apparent Tm of 2PT-NBD1 by thermal shift assay (DSF; 10 µM NBD1, 30 µM nanobody)” value in data set [1] came to 11.9 °C. In addition, the binding result in data set [2] is on record as “binds”. In data set [3], the affinity, expressed as Kd, was 25 nM and the “stoichiometry N” value was 1.

B2: nanobody T2a (VHH)
VHH: QVQLQESGGGLVQAGGSLRLSCAASGSIFRIDAMGWYRQAPGKQRELVAHSTSGGSTDYADSVKGRFTISRDNAKNTVYLQMNSLKPEDTAVYYCNADVRTRWYASNNYWGQGTQVTVSS
notes: as for B1
As to B2, the “increase of the apparent Tm of 2PT-NBD1 by thermal shift assay (DSF; 10 µM NBD1, 30 µM nanobody)” value in data set [1] turned out to be 11.2 °C. In addition, in data set [2], the binding result is “binds”. Also, in data set [3], binding was put at a Kd of 54 nM and the “stoichiometry N” value was found to be 1.

B3: nanobody T4 (VHH)
VHH: QVQLQESGGGLVQAGGSLRLSCAASGSTFAIIAMGWYRQAPGKQRELVAVISTGDTRYADSVKGRFTISRDNAKNTVYLQMDSLRPEDTAVYYCNAAVQVRDYRNYWGQGTQVTVSS
notes: as for B1
In the case of B3, the “increase of the apparent Tm of 2PT-NBD1 by thermal shift assay (DSF; 10 µM NBD1, 30 µM nanobody)” value in data set [1] came out at 12.5 °C. Also, the binding result in data set [2] is “binds”. Further, in data set [3], the dissociation constant Kd was 37.9 nM and the “stoichiometry N” value turned out to be 1.

B4: nanobody G3a (VHH)
VHH: QVQLQESGGGLVQAGGSLRLSCTASGRAFSWYVMGWFRQAPGKEREFVATVSGNGSRRDYADSVKGRFTISRDNAKNTVYLQMNSLKPEDTAVYYCAASSTYYYTDPEKYDYWGQGTQVTVSS
notes: as for B1
B4: the binding result in data set [2] is “binds”. Further, in data set [3], the Kd was found to be 1100 nM and the “stoichiometry N” value was determined as 1.

B5: nanobody D12 (VHH)
VHH: QVQLQESGGGLVQAGSSLRLACAATGSIRSINNMGWYRQAPGKQRGMVAIITRVGNTDYADSVKGRFTISRDNAKNTVYLQMNSLKPEDTATYYCHAEITEQSRPFYLTDDYWGQGTQVTVSS
notes: as for B1
On to B5, for which the “increase of the apparent Tm of 2PT-NBD1 by thermal shift assay (DSF; 10 µM NBD1, 30 µM nanobody)” value in data set [1] stood at 13.8 °C. In data set [2], the binding result is reported as “binds”.

B6: nanobody T8 (VHH)
VHH: QVQLQESGGGLVQPGGSLRLSCAASGSTSSINAMGWYRQAPGKQREPVAISSSGGDTRYAEPVKGRFTISRDNAQNKVYLQMNSLKPEDTAVYYCWLNWGRTSVNSWGQGTQVTVSS
notes: as for B1
For B6, the “increase of the apparent Tm of 2PT-NBD1 by thermal shift assay (DSF; 10 µM NBD1, 30 µM nanobody)” value in data set [1] was 9.1 °C. In addition, in data set [2], the binding result is given as “binds”. Further, in data set [3], the affinity, expressed as Kd, was 39 nM and the “stoichiometry N” value was 1.

The Kd is the free concentration of one partner at which half of the binding sites on the other are occupied at equilibrium, for simple one-to-one binding. Low readings indicate tighter binding, high ones weaker binding. The stoichiometry N is the number of molecules, sites or subunits per partner or assembly.
